Patent US20260209316A1 (US Dept. of Health and Human Services, published 2026)
Read-outs that look alike come from different tables or passages of the source.

How the values were obtained:
[1] = target: T1, mucin domain-deleted Sudan GP (GPdMuc) (Sudan virus (SUDV), UniProt Q7T9D9 33-632); assay: ELISA on coated GP
T1 construct: also called Sudan GPdMuc; GP(S)dMuc

[2] = target: T2, mucin domain-deleted Zaire GP (GPdMuc) (Ebola (Zaire) virus (EBOV), UniProt Q05320 33-632); assay: ELISA on coated GP
T2 construct: also called Zaire GPdMuc; GP(Z)dMuc

[3] = target: T1, mucin domain-deleted Sudan GP (GPdMuc); assay: ELISA on coated GP (EC50)
[4] = target: T3, mucin domain-deleted Sudan GP (GPdMuc) (Sudan virus (SUDV), UniProt Q7T9D9 33-632); assay: ELISA on coated GP
[5] = target: T3, mucin domain-deleted Sudan GP (GPdMuc); assay: ELISA on coated GP; remark: listed apart in the source
[6] = target: T3, mucin domain-deleted Sudan GP (GPdMuc); assay: BLI competition on Sudan GPdMuc (lower table); competitor 15H10
[7] = target: T3, mucin domain-deleted Sudan GP (GPdMuc); assay: BLI competition on Sudan GPdMuc (lower table); competitor mAb166
[8] = target: T4, mucin domain-deleted Zaire GP (GPdMuc) (Ebola (Zaire) virus (EBOV), UniProt Q05320 33-632); assay: ELISA on coated GP
[9] = target: T4, mucin domain-deleted Zaire GP (GPdMuc); assay: ELISA on coated GP; remark: listed apart in the source
[10] = target: T4, mucin domain-deleted Zaire GP (GPdMuc); assay: BLI competition on Zaire GPdMuc (upper table); competitor 13C6
[11] = target: T4, mucin domain-deleted Zaire GP (GPdMuc); assay: BLI competition on Zaire GPdMuc (upper table); competitor 316L
[12] = target: T4, mucin domain-deleted Zaire GP (GPdMuc); assay: BLI competition on Zaire GPdMuc (upper table); competitor 380L
[13] = target: T4, mucin domain-deleted Zaire GP (GPdMuc); assay: BLI competition on Zaire GPdMuc (upper table); competitor KZ52
[14] = target: T4, mucin domain-deleted Zaire GP (GPdMuc); assay: BLI competition on Zaire GPdMuc (upper table); competitor 15H10
[15] = target: T1, mucin domain-deleted Sudan GP (GPdMuc); assay: ELISA on coated GP; remark: listed apart in the source
[16] = target: T2, mucin domain-deleted Zaire GP (GPdMuc); assay: ELISA on coated GP; remark: listed apart in the source
[17] = target: T2, mucin domain-deleted Zaire GP (GPdMuc); assay: BLI competition on Zaire GPdMuc (upper table); competitor 13C6
[18] = target: T2, mucin domain-deleted Zaire GP (GPdMuc); assay: BLI competition on Zaire GPdMuc (upper table); competitor 380L
[19] = target: T2, mucin domain-deleted Zaire GP (GPdMuc); assay: BLI competition on Zaire GPdMuc (upper table); competitor KZ52
[20] = target: T1, mucin domain-deleted Sudan GP (GPdMuc); assay: BLI competition on Sudan GPdMuc (lower table); competitor 15H10
[21] = target: T2, mucin domain-deleted Zaire GP (GPdMuc); assay: BLI competition on Zaire GPdMuc (upper table); competitor 15H10
[22] = target: T1, mucin domain-deleted Sudan GP (GPdMuc); assay: BLI competition on Sudan GPdMuc (lower table); competitor mAb166
[23] = target: T2, mucin domain-deleted Zaire GP (GPdMuc); assay: BLI competition on Zaire GPdMuc (upper table); competitor mAb114

B1: antibody 232L (antibody, V domains shown)
VH: KSQLVESGGGLVQPGGSLRLSCAASGFTFDAYAMHWVRQAPGEGLEWVTAISWSGSSTYYADSVKGRFTFSRDNAKNSLYLEMNSLRADDTAFYYCVKGGVYNWFDVWGPGVLVTVSS
VL: QSVLTQPPSVSGAPGQRVTISCTGSRSNIGGYYVSWYQQFPGTTPKLLIYQDNKRPSGVSDRFSGSKSGTSASLTITGLQTEDEADYYCLSYDSSLNGWVFGGGTRLTVL
Q: What does the source list for B1?
A: EC50 [1]: > 10 µg/mL; EC50 [2]: 0.08 µg/mL; EC50 [3]: > 10 µg/mL

B2: antibody 16F6 (antibody, V domains shown)
VH: EVQLVESGGGLVTPGGSLKLSCAASGFAFNYYDMFWVRQNTEKRLEWVAYINSGGGNTYYPDTVKGRFTISRDNAKKTLFLQMSSLRSEDTAMYYCARQLYGNSFFDYWGQGTSLTVSA
VL: DIVMTQSHKFMSTSVGDRVTITCKASQDVTTAVAWYQQKPGHSPKLLIYWASTRHTGVPDRFTGSGSGTDFTLTLNSVQAEDLALYYCQQHYSTPLTFGAGTKLELK
Q: How did the EC50 [4] turn out when B2 was run?
A: The EC50 was 0.0558 µg/mL.

Q: And the EC50 [5]?
A: Its EC50 is 0.05 µg/mL.

Q: What about the “% inhibition of binding” value [6] of the same binder?
A: Its value is 7.8%.

Q: And the “% inhibition of binding” value [7]?
A: The value was 0.2%.

B3: antibody mAb114 (antibody, V domains shown)
VH: EVQLVESGGGLIQPGGSLRLSCAASGFALRMYDMHWVRQTIDKRLEWVSAVGPSGDTYYADSVKGRFAVSRENAKNSLSLQMNSLTAGDTAIYYCVRSDRGVAGLFDSWGQGILVTVSS
VL: DIQMTQSPSSLSASVGDRITITCRASQAFDNYVAWYQQRPGKVPKLLISAASALHAGVPSRFSGSGSGTHFTLTISSLQPEDVATYYCQNYNSAPLTFGGGTKVEIK
Q: Which EC50 [8] does the source give for B3 here?
A: Its EC50 is 0.00904 µg/mL.

Q: And the EC50 [9]?
A: Its EC50 is 0.007 µg/mL.

Q: And the “% inhibition of binding” value [10]?
A: Its value is 92%.

Q: And the “% inhibition of binding” value [11]?
A: Its value is 96%.

Q: What about the “% inhibition of binding” value [12] of the same binder?
A: Its value is 95%.

Q: And the “% inhibition of binding” value [13]?
A: The value was 10%.

Q: What about the “% inhibition of binding” value [14] of the same binder?
A: The value was 3%.

B4: antibody 316L (antibody, V domains shown)
VH: EERLVESGGGLVQPGGSLRLSCAASGFTFGDYAMHWVRQVPGKSLEWLSGISWSGYTTYSADSVKGRFTISRDNAKNSLYLQMNRLRPEDTGLYYCVTLIGAIGIKDSLDVWGRGVLVTVSS
VL: QSVLTQPPSVSGAPGQRVTVSCSGSSSNIGAGNYVQWYQQLPGTAPKVLIYQTEKRPSGTSDRFSGSKSDTSASLTINGLQSEDEADYYCQVYDSNLNGWVFGGGTRLTVLG
notes: also called 316L mAb; mAb 316L
Q: What does the source list for B4?
A: EC50 [15]: 0.0272 µg/mL; EC50 [16]: 0.0124 µg/mL; % inhibition of binding [17]: 98%; % inhibition of binding [18]: 92%; % inhibition of binding [19]: 13%; % inhibition of binding [20]: 14.5%; % inhibition of binding [21]: 26%; % inhibition of binding [22]: 80%; % inhibition of binding [23]: 100%
